Substitutions are numbered along the chain they refer to.
B1: scFv-19 (scFv)
scFv: QVQLVQSGGGLVQPGGSLRLSCAASGFTFSSYAMHWVRQAPGKGLEWVSVISPPGHNTYYADSVKGRFTISRDNSKNTLYLQMNSLRAEDTAVYYCARASVGATGPFDIWGQGTLVTVSSASTGGGGSGGGGSGGGGSGGGGSSSELTQPPSVSVAPGQTVTITCQGDSLRSYYASWYQQKPGTAPKLLIYGENNRPSGVPDRFSGSSSGTSASLTITGAQAEDEADYYCNSRDSSGTHLTVFGGGTKLTVLG
B2: scFv-3 (scFv)
scFv: B1 scFv with S49T, P54D
B3: scFv-21 (scFv)
scFv: B1 scFv with S49T, P53R, P54H, H56N, T58K
B4: scFv-20 (scFv)
scFv: B1 scFv with S49T, P53H, P54D, H56T
B5: scFv-7 (scFv)
scFv: B1 scFv with P54A, H56P
B6: scFv-10 (scFv)
scFv: B1 scFv with V50A
B7: scFv-11 (scFv)
scFv: B1 scFv with S49A, P53H, P54H, H56S
B8: scFv-22 (scFv)
scFv: B1 scFv with S49T, P54G, H56P, T58K
B9: scFv-16 (scFv)
scFv: B1 scFv with P53N, P54N
B10: scFv-1 (scFv)
scFv: B1 scFv with P54A, H56N
B11: scFv-13 (scFv)
scFv: B1 scFv with S49T, P54T, H56A
B12: scFv-15 (scFv)
scFv: B1 scFv with P54H, H56S, T58K
B13: scFv-2 (scFv)
scFv: B1 scFv with P54A, H56R, T58K
B14: scFv-9 (scFv)
scFv: B1 scFv with S49T, P54N
B15: scFv-14 (scFv)
scFv: B1 scFv with S49T, P54A, H56P, T58K
B16: scFv-17 (scFv)
scFv: B1 scFv with S49T, H56S, T58K
B17: scFv-6 (scFv)
scFv: B1 scFv with P53N, P54N, T58K
B18: scFv-5 (scFv)
scFv: B1 scFv with P53R, P54R, H56D, T58K
B19: scFv-8 (scFv)
scFv: B1 scFv with S49T, P54S
B20: scFv-18 (scFv)
scFv: B1 scFv with P54A, H56T
B21: scFv-4 (scFv)
scFv: B1 scFv with S49T, P54H, H56R, T58K
B22: scFv-8C (scFv)
scFv: QVQLVQSGGGLVQPGGSLRLSCAASGFTFSSYAMHWVRQAPGKGLEWVTVISPSGHNTYYADSVKGRFTISRDNSKNTLYLQMNSLRAEDTAVYYCARASVGATGPFDIWGQGTLVTVSSASTGGGGSGGGGSGGGGSGGGGSSSELTQPPSVSVAPGQTVTITCQGDSLRSYYASWYQQKPGTAPKLLIYGENNRPSGVPDRFSGSSSGTSASLTITGAQAEDEADYYCNSRDSSGTHLTVFGGGTKLTVLGGGSGGC
notes: also called clone 8
B23: scFv-9C (scFv)
scFv: B22 scFv with S54N
notes: also called clone 9
B24: scFv-13C (scFv)
scFv: B22 scFv with S54T, H56A
notes: also called clone 13
B25: scFv-19C (scFv)
scFv: B22 scFv with T49S, S54P
B26: scFv-16C (scFv)
scFv: B22 scFv with T49S, P53N, S54N

Key:
[1] = molecular target: T1, human EphA2 on OVCAR-3 and U-251 cells (human, UniProt P29317 24-976); assay: CLIA: scFv-decorated fluorescent NTA(Ni) liposomes on EphA2-expressing cells, FACS
T1 construct: whole, on cells; also called EphA2 receptors
T1 sequence (P29317 24-976): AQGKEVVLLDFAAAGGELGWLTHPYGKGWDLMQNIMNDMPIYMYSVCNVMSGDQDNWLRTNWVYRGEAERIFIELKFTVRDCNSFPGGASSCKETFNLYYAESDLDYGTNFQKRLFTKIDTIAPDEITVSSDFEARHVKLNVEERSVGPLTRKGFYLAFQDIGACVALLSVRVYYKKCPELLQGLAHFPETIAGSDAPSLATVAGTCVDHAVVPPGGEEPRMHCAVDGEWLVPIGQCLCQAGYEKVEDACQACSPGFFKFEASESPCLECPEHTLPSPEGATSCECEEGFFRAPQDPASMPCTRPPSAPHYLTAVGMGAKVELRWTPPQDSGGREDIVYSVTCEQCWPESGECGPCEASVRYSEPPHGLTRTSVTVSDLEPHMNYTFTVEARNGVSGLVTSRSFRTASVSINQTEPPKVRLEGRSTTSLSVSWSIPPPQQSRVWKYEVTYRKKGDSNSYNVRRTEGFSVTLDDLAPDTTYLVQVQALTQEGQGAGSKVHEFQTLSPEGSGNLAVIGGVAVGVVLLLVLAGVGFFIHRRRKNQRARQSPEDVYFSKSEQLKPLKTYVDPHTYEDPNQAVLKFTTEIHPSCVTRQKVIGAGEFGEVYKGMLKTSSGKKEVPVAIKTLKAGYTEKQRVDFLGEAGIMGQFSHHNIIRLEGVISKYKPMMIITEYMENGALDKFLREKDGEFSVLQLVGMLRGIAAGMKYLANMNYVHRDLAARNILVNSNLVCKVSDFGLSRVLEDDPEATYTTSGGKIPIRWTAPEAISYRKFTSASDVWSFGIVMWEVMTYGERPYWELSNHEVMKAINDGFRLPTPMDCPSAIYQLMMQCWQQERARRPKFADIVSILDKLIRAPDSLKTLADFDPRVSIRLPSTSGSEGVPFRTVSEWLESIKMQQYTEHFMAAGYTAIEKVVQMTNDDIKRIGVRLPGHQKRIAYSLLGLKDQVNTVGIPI
Procedure: To test the anti-EphA2 activity of these variant scFvs, the binding and internalization of liposomes externally decorated with these Abs was assayed on cell lines expressing EphA2. A rapid high-throughput Chelated Ligand-induced Internalization Assay (CLIA) (Nielsen et al., BMC immunology, 2006, 7:24) was used to screen anti-EphA2-scFv-targeted liposomes for binding and internalization assessment. Two cell lines that express high levels of EphA2 receptors, OVCAR-3 and U-251, were tested, as well as a murine EphA2-expressing mouse cell line, CT-26 (to test whether cross-reactivity to murine EphA2 was retained by the engineered scFvs). Via nickel-binding by each scFv's c-terminal His6 tag, the scFvs were bound to fluorescently labeled liposomes comprising an NTA(Ni) conjugated lipid (Dil5-NTA liposomes).
Dil5-NTA liposomes were prepared as follows. The NTA conjugated lipid, DOD-Tri-NTA, was synthesized as described in Huang et al., Bioconjugate chemistry, 2006, vol. 17, p. 1592-1600. Hydrogenated soy phosphatidylcholine (HSPC), cholesterol, methoxy-PEG(2000)-distearoylphosphatidylethanolamine (PEG-DSPE), DOD-tri-NTA, and a fluorescent lipid dye, Dil5, (ThermoFisher® Invitrogen® Molecular Probes™, cat. # D12370) were combined in a chloroform solution at the molar ratio of 100:66.7:5:0.5:0.3 respectively and the solution evaporated under vacuum to dryness forming a lipid film. The film was hydrated in HEPES-buffered physiological saline (“HBS-6.5”—5 mM HEPES, 144 mM NaCl pH 6.5) at 68° C., the resulting lipid suspension was subjected to several cycles of freezing (dry ice-acetone) and thawing (68C), and extruded through two stacked polycarbonate membranes (Whatman Nuclepore, USA) with the pore size of 200 nm (6 times) and 100 nm (10 times) using Lipex™ thermobarrel extruder (Northern Lipids, Canada). This protocol typically produces unilamellar vesicles with the z-average size of 100-110 nm and polydispersity index less than 0.1. The extruded liposomes were chilled to room temperature, purified by gel-chromatography on a Sephadex® G-75 (GE Healthcare) column eluted with HBS-6.5, and then sterilized by passage through a 0.2-μm filter. The concentration of liposomal phospholipid was then determined after acid digestion using spectrophotometric phosphomolybdate method.

[2] = molecular target: T2, His6-tagged recombinant human EphA2 protein (human, UniProt P29317 25-534); assay: BLI (Octet Red 96); His6-EphA2 on anti-His sensors; slope of association curve of scFv-linked liposomes at 0.025 mM phospholipid; TS1C printed as 100
T2 construct: also called his-tagged recombinant, human EphA2; human EphA2 with c-terminal His6
T2 sequence (P29317 25-534 limits assumed): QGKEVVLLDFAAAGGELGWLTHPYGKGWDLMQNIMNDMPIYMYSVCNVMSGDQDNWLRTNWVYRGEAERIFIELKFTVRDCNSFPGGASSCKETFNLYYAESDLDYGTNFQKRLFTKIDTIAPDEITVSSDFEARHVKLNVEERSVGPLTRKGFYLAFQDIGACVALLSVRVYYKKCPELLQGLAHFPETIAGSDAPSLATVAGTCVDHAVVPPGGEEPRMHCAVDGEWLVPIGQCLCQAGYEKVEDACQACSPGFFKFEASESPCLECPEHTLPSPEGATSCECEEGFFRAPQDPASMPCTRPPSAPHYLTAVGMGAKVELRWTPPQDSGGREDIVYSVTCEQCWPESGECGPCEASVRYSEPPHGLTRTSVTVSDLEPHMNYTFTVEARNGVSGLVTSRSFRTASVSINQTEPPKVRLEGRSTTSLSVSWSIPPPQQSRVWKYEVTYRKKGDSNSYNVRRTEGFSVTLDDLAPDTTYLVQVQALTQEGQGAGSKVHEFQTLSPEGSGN
Text: (§1) A nucleic acid encoding human EphA2 with c-terminal His6 appended was cloned into expression vector pCEP4 (Invitrogen® # V044-50) and transiently expressed in FreeStyle™ 293 cells (Invitrogen® #K900001) following polyethylenenimine transfection. The His6-tagged recombinant human EphA2 protein was purified from the cell culture medium using Ni-NTA Sepharose™ resin (Quiagen®, USA). Anti-His sensors for the fortéBIO® Octet Red 96 system (fortéBIO®-Pall® #18-5116) were coated with his-tagged recombinant, human EphA2 at concentration of 10 μg/ml protein for 300 sec, and a background run was carried out in PBS for 60 sec. For scFv-PEG-DSPE conjugates, the sensors were then incubated with 2.5 μg/ml (Study 1) or 4.0 μg/ml (Study 2) of the conjugate in PBS, pH 7.4, and the slopes of association curves were determined between 3-13 seconds of incubation, corrected for the buffer-only background, and compared across the variants. ScFv-linked liposomes were incubated with the sensors in PBS at 0.025 mM of liposome phospholipid, the slopes of the association curves were determined between 3-20 seconds of incubation, corrected for the buffer-only background, and compared across the variants.
(§2) Results are shown below in Table 6, in which column A gives scFv identifiers; column B indicates percent yield of scFv/lipopolymer linker conjugates; column C gives percent scFv-conjugate (not liposome-bound) EphA2 binding on-rate; column D gives percent scFv-conjugated-liposome EphA2 binding on-rate; and columns E (Study 1) and F (study 2) give percent antigen binding on-rate remaining in the scFv-conjugate (not liposome-bound) following thermal stress.

[3] = molecular target: T2, His6-tagged recombinant human EphA2 …; assay: BLI (Octet Red 96); His6-EphA2 on anti-His sensors; scFv-PEG-DSPE conjugate at 2.5 ug/ml after thermal stress
Text: as §1, §2

[4] = molecular target: T2, His6-tagged recombinant human EphA2 …; assay: BLI (Octet Red 96); His6-EphA2 on anti-His sensors; scFv-PEG-DSPE conjugate at 4.0 ug/ml after thermal stress
Text: as §1, §2

[5] = molecular target: T2, His6-tagged recombinant human EphA2 …; assay: BLI (Octet Red 96); His6-EphA2 on anti-His sensors; slope of association curve of scFv-PEG-DSPE conjugate; TS1C printed as 100
Text: as §1, §2

Row | Binder | binding result [1] | further results
1 | B1 | binds | –
2 | B2 | binds | –
3 | B3 | binds | –
4 | B4 | binds | –
5 | B5 | binds | –
6 | B6 | binds | –
7 | B7 | binds | –
8 | B8 | binds | –
9 | B9 | binds | –
10 | B10 | binds | –
11 | B11 | binds | –
12 | B12 | binds | –
13 | B13 | binds | –
14 | B14 | binds | –
15 | B15 | binds | –
16 | B16 | binds | –
17 | B17 | binds | –
18 | B18 | binds | –
19 | B19 | binds | –
20 | B20 | binds | –
21 | B21 | binds | –
22 | B22 | – | percent scFv-conjugated-liposome EphA2 binding on-rate [2]: 133%; percent antigen binding on-rate remaining in the scFv-conjugate following thermal stress (Study 1) [3]: 19.8%; percent antigen binding on-rate remaining in the scFv-conjugate following thermal stress (Study 2) [4]: 7.3%; percent scFv-conjugate (not liposome-bound) EphA2 binding on-rate [5]: 113%
23 | B23 | – | percent scFv-conjugated-liposome EphA2 binding on-rate [2]: 118%; percent antigen binding on-rate remaining in the scFv-conjugate following thermal stress (Study 1) [3]: 25.2%; percent antigen binding on-rate remaining in the scFv-conjugate following thermal stress (Study 2) [4]: 12.2%; percent scFv-conjugate (not liposome-bound) EphA2 binding on-rate [5]: 114%
24 | B24 | – | percent scFv-conjugated-liposome EphA2 binding on-rate [2]: 120%; percent antigen binding on-rate remaining in the scFv-conjugate following thermal stress (Study 1) [3]: 18.2%; percent antigen binding on-rate remaining in the scFv-conjugate following thermal stress (Study 2) [4]: 9%; percent scFv-conjugate (not liposome-bound) EphA2 binding on-rate [5]: 105%
25 | B25 | – | percent scFv-conjugated-liposome EphA2 binding on-rate [2]: 129%; percent antigen binding on-rate remaining in the scFv-conjugate following thermal stress (Study 2) [4]: 5.1%; percent scFv-conjugate (not liposome-bound) EphA2 binding on-rate [5]: 112%
26 | B26 | – | percent scFv-conjugated-liposome EphA2 binding on-rate [2]: 113%; percent antigen binding on-rate remaining in the scFv-conjugate following thermal stress (Study 2) [4]: 4.6%; percent scFv-conjugate (not liposome-bound) EphA2 binding on-rate [5]: 128%

— patent US20170267768A1 (University of California, published 2017)
